Data reported in article PMC8682777, “Mechanisms of distinctive mismatch tolerance between Rad51 and Dmc1 in homologous recombination” (Nucleic Acids Research, 2021).

Columns and labels:
[1] = biological target: the molecule itself; assay: cryo-EM structure; helical filaments of 4 uM ScDmc1 on 150-mer ssDNA (presynaptic) or after strand exchange with 150-bp dsDNA and 0.4 uM Hop2-Mnd1 (postsynaptic); 35 mM Tris-HCl pH 7.5, 96 mM KCl, 2 mM ATP, 5 mM CaCl2, 1 mM DTT, 37°C
[2] = biological target: the molecule itself; assay: cryo-EM structure; helical filaments of 2 uM hRAD51 on 150-mer ssDNA with 2 uM RS-1 (presynaptic, wt only) or after strand exchange with dsDNA and 0.2 uM Hop2-Mnd1 without RS-1 (postsynaptic, wt and 273-PG-274); 25 mM HEPES pH 7.5, 25 mM KCl, 4 mM MgCl2, 4 mM AMP-PNP, 37°C
hRAD51 wt [3] = biological target: T1, hRAD51 wt (Homo sapiens (human), UniProt Q06609 1-339); assay: cryo-EM; 4 mM AMP-PNP, 4 mM Mg2+, RS-1; presynaptic complex; hRAD51: 25 mM HEPES pH 7.5, 25 mM KCl, 4 mM MgCl2, 4 mM AMP-PNP, 37 C; ScDmc1: 35 mM Tris-HCl pH 7.5, 96 mM KCl, 2 mM ATP, 5 mM CaCl2, 1 mM DTT, 37 C. Strand-exchange/smFRET activity assays and MM-GBSA energies not listed.; conditions: protein: recombinant; chain copies: 10
ScDmc1 wt [4] = biological target: T2, ScDmc1 wt (UniProt P25453 1-334); assay: cryo-EM; 2 mM ATP, 5 mM Ca2+; presynaptic complex; hRAD51: 25 mM HEPES pH 7.5, 25 mM KCl, 4 mM MgCl2, 4 mM AMP-PNP, 37 C; ScDmc1: 35 mM Tris-HCl pH 7.5, 96 mM KCl, 2 mM ATP, 5 mM CaCl2, 1 mM DTT, 37 C. Strand-exchange/smFRET activity assays and MM-GBSA energies not listed.; conditions: protein: recombinant; tags: His6
T2 sequence: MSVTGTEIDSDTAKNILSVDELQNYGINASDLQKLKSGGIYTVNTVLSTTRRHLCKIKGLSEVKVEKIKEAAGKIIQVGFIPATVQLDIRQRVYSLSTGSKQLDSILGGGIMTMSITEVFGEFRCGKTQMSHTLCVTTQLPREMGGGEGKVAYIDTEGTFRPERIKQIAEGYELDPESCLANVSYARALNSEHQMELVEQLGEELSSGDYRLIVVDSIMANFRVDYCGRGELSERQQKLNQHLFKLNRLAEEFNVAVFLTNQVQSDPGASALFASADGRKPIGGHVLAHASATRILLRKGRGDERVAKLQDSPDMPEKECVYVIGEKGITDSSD

hRAD51 wt [5] = biological target: T1, hRAD51 wt; assay: cryo-EM; AMP-PNP, Mg2+, Hop2-Mnd1 added to trigger exchange, no RS-1; postsynaptic complex; hRAD51: 25 mM HEPES pH 7.5, 25 mM KCl, 4 mM MgCl2, 4 mM AMP-PNP, 37 C; ScDmc1: 35 mM Tris-HCl pH 7.5, 96 mM KCl, 2 mM ATP, 5 mM CaCl2, 1 mM DTT, 37 C. Strand-exchange/smFRET activity assays and MM-GBSA energies not listed.; conditions: protein: recombinant; chain copies: 16; blunt
ScDmc1 wt [6] = biological target: T2, ScDmc1 wt; assay: cryo-EM; 2 mM ATP, 5 mM Ca2+, Hop2-Mnd1 added; postsynaptic complex; hRAD51: 25 mM HEPES pH 7.5, 25 mM KCl, 4 mM MgCl2, 4 mM AMP-PNP, 37 C; ScDmc1: 35 mM Tris-HCl pH 7.5, 96 mM KCl, 2 mM ATP, 5 mM CaCl2, 1 mM DTT, 37 C. Strand-exchange/smFRET activity assays and MM-GBSA energies not listed.; conditions: protein: recombinant; tags: His6; blunt
hRAD51 273-PG-274 = hRAD51 273-PG-274 (Homo sapiens (human), UniProt Q06609 1-339, V273P;D274G); assay: cryo-EM; AMP-PNP, Mg2+, Hop2-Mnd1 added, no RS-1; postsynaptic complex; hRAD51: 25 mM HEPES pH 7.5, 25 mM KCl, 4 mM MgCl2, 4 mM AMP-PNP, 37 C; ScDmc1: 35 mM Tris-HCl pH 7.5, 96 mM KCl, 2 mM ATP, 5 mM CaCl2, 1 mM DTT, 37 C. Strand-exchange/smFRET activity assays and MM-GBSA energies not listed.; conditions: protein: recombinant; chain copies: 16; blunt

B1: yeast Dmc1 wild type (natural protein)
chain: MSVTGTEIDSDTAKNILSVDELQNYGINASDLQKLKSGGIYTVNTVLSTTRRHLCKIKGLSEVKVEKIKEAAGKIIQVGFIPATVQLDIRQRVYSLSTGSKQLDSILGGGIMTMSITEVFGEFRCGKTQMSHTLCVTTQLPREMGGGEGKVAYIDTEGTFRPERIKQIAEGYELDPESCLANVSYARALNSEHQMELVEQLGEELSSGDYRLIVVDSIMANFRVDYCGRGELSERQQKLNQHLFKLNRLAEEFNVAVFLTNQVQSDPGASALFASADGRKPIGGHVLAHASATRILLRKGRGDERVAKLQDSPDMPEKECVYVIGEKGITDSSD
notes: Dmc1 meiotic recombinase, yeast (ScDmc1); wt construct pNRB150, a gift from Dr Zhi Qi; Stood as a helical filament on ssDNA (presynaptic) or dsDNA (postsynaptic) with ATP-Ca2+; The stored protein is named His6-ScDmc1 and no cleavage of the tag is described; also called ScDmc1; ScDmc1 wt; source: E. coli BLR(DE3) plysS (RecA-deficient), purified (Talon beads, Heparin)
B1: binds [1].

B2: human RAD51 mutant 273-PG-274 (natural protein)
chain: MAMQMQLEANADTSVEEESFGPQPISRLEQCGINANDVKKLEEAGFHTVEAVAYAPKKELINIKGISEAKADKILAEAAKLVPMGFTTATEFHQRRSEIIQITTGSKELDKLLQGGIETGSITEMFGEFRTGKTQICHTLAVTCQLPIDRGGGEGKAMYIDTEGTFRPERLLAVAERYGLSGSDVLDNVAYARAFNTDHQTQLLYQASAMMVESRYALLIVDSATALYRTDYSGRGELSARQMHLARFLRMLLRLADEFGVAVVITNQVVAQPGGAAMFAADPKKPIGGNIIAHASTTRLYLRKGRGETRICKIYDSPCLPEAEAMFAINADGVGDAKD
notes: RAD51 recombinase, human, with V273 and D274 of Loop2 changed to P and G (the residues of hDMC1); made from the hRAD51 wt construct by point mutation; Stood as a helical filament on dsDNA (postsynaptic complex, without RS-1); Only an EM map is deposited (EMD-31155), no PDB model; also called PG mutant; source: E. coli BLR(DE3) plysS (RecA-deficient), purified as hRAD51 wt
B2: binds [2].

B3: 150-mer ssDNA oligo 4 (ssDNA)
DNA: TAAATAAGATAAGGATAATACAAAATAAGTAAATGAATAAACAGAGAAAATAAAGTAAAGGATATAAAAAATGAACATAAAGAATAAGTAAATGAATAAAACATAATAGGAATAAATATAGGAAATGAAATAAAAGAGACATAAATAAGA
B3: binds (hRAD51 wt [3]); binds (ScDmc1 wt [4]).

B4: 150-bp homologous dsDNA oligo 4/oligo 5 (postsynaptic) (dsDNA)
DNA 1: TAAATAAGATAAGGATAATACAAAATAAGTAAATGAATAAACAGAGAAAATAAAGTAAAGGATATAAAAAATGAACATAAAGAATAAGTAAATGAATAAAACATAATAGGAATAAATATAGGAAATGAAATAAAAGAGACATAAATAAGA
DNA 2: TCTTATTTATGTCTCTTTTATTTCATTTCCTATATTTATTCCTATTATGTTTTATTCATTTACTTATTCTTTATGTTCATTTTTTATATCCTTTACTTTATTTTCTCTGTTTATTCATTTACTTATTTTGTATTATCCTTATCTTATTTA
B4: binds (hRAD51 wt [5]); binds (ScDmc1 wt [6]); binds (hRAD51 273-PG-274).
